Legend:
Assay in all cases: negative-stain EM
[1] = molecular target: GhV F I268F/Q287P/S196C/A215C ectodomain (Ghanaian virus (GhV))
[2] = molecular target: GhV F I268F/Q287P ectodomain (Ghanaian virus (GhV))
[3] = molecular target: GhV F S196C/A215C ectodomain (Ghanaian virus (GhV))

Substance: GhV F I268F/Q287P/S196C/A215C ectodomain (domain or fragment)
- stoichiometry N [1]: 3

Substance: GhV F I268F/Q287P ectodomain (domain or fragment)
- stoichiometry N [2]: 3

Substance: GhV F S196C/A215C ectodomain (domain or fragment)
- stoichiometry N [3]: 3

From publication doi:10.1101/2023.08.20.554025
